Laboratory results reported in paper PMC3672139.

Molecular target: T1, RB1 (human) (UniProt P06400)
T1 sequence: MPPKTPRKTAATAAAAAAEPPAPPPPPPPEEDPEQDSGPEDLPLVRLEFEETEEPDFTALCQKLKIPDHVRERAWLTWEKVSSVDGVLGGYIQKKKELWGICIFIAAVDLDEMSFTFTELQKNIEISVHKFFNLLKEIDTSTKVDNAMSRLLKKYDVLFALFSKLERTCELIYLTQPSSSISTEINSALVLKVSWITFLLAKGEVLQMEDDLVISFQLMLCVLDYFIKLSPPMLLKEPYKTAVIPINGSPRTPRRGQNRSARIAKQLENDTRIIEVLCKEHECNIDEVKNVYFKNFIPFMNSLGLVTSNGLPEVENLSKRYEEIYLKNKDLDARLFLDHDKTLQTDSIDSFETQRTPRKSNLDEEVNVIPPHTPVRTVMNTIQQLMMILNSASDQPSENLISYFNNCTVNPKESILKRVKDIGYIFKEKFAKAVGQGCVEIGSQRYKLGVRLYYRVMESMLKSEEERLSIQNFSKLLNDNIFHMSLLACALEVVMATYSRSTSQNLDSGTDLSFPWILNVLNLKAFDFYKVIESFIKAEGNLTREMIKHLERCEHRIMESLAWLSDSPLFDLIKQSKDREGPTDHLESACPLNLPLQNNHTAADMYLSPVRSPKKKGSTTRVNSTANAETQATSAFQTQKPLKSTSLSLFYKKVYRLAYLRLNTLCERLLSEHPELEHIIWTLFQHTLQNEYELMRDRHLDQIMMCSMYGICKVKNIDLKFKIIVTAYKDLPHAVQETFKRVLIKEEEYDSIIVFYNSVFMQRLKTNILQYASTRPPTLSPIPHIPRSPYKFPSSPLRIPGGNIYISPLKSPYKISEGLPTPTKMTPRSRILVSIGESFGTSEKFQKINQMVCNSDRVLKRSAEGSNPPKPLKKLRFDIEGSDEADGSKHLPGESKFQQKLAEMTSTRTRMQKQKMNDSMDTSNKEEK
Test: SPR
Settings: DNA immobilized; 650 mM NaCl; 10 mM Tris-HCl, 150 mM NaCl, 5 mM KCl, pH 7.4; EMSA room temperature 30 min, 12% PAGE in TBE; SPR 25 C (RB1 SPR with 650 mM NaCl)

Sequence: CGGGGGGTTTTGGGCGGC [RB1 G4]
- Kd: 440 nM
